The results in this text go back to patent publication US20230374526A1, “FORSKOLIN-INDUCIBLE PROMOTERS AND HYPOXIA-INDUCIBLE PROMOTERS” (ASKLEPIOS BIOPHARMACEUTICAL, INC., priority 2020, published 2023).

One data set relates to HEK-293 cells. The experiment in a line: Optimum inducer concentration to induce expression. The class given is cell-based, human.
The next data set concerns Pro10 cells. The experiment in a line: Rep78 expression via western blot under second generation forskolin-inducible promoters. Format: cell-based. The following applies: for Rep78 expression in the presence of forskolin: 10 μM forskolin, 24 hrs; for Rep78 expression in the presence of forskolin / Rep78 expression in the absence of forskolin: western blot; for Rep78 expression in the absence of forskolin: DMSO control. Here is the method:
HEK293-T (ATCC-CRL-3216) cell lines were maintained in DMEM plus 10% FBS as described for HEK293 cells. Plasmids to be transfected were linearised and transfected using Lipofectamine 2000 (Invitrogen, 11668027) as per the manufacturer's instructions. The cells were then cultured for 48 hrs in non-selective medium before being switched to selective medium (standard medium plus Blasticidin 5 ug/ml (Thermofisher, A1113902).
Each of the promoters were tested for their ability to induce expression of the Rep78 protein. To eliminate the expression of Rep52, we have mutated the ATG start codon in Rep52 to an AGG. All constructs were synthesized by Genewiz. Pro10 cells were cultured and transfected using lipofectamine 2000 as previously described. 24 hrs after transfection 10 μM forskolin was added to the cells. Control wells were given DMSO as forskolin was dissolved in this carrier. After another 24 hrs the cells were then lysed and lysates were analysed for Rep78 expression via western blot.
Cells are collected in Eppendorf tubes and centrifuged at 300 g for 5 mins in a tabletop centrifuge. Supernatants are discarded and cell pellets are lysed in 1× radioimmunoprecipitation assay (RIPA) buffer, which is made up of RIPA Lysis & Extraction Buffer (Thermofisher, UK, 89900), 100×Halt Protease Inhibitor (Thermofisher, UK, 78445). After addition of the cell lysis buffer all samples are constantly kept on ice. The samples are vortexed and either stored at −20° C. overnight or kept on ice for 30 mins prior to centrifugation at full speed (21,130 g) in the tabletop centrifuge for 20 mins at 4° C. for the removal of any insoluble material. Cell lysates are mixed with 4×LDS loading sample buffer and 10× sample reducing agent (ThermoFisher, UK, NP0007 and NP0004); they are briefly spun down, heated to 95° C. for 10 mins, allowed to cool to 10° C., briefly spun down again and then separated on polyacrylamide gels (NuPAGE Novex 4-12% Bis-Tris Gels, 1.0 mm; ThermoFisher UK, NP0324BOX), which are allowed to reach room temperature before use. The PageRuler™ Prestained NIR Protein Ladder (ThermoFisher, UK, 26635) is run alongside the cell lysates for size comparison purposes. Gels are run at 150V for 1 hour 15 mins using ThermoFisher's XCell SureLock Mini-Cell system. Gels are then transferred to nitrocellulose membranes using the iBlot 2 Dry Blotting System, p0 programme, (ThermoFisher, UK) according to the manufacturer's instructions. Initially, a total protein stain is performed following the manufacturer's instructions (Revert™ 700 Total Protein Stain for Western Blot Normalization; Licor, UK, 926-11011), and this is followed by immunoblotting of the membranes. The membranes are specifically transferred to falcon tubes where they are first blocked with the Licor Odyssey® blocking buffer at room temperature for 1 hour, followed by probing with suitable primary antibodies resuspended in the Licor Odyssey® blocking buffer in a cold room set at 4° C. overnight. The following day membranes are washed 3× in PBS-T (0.05%) for 5 mins each time and then probed with a suitable secondary antibody for 1.5 hours at room temperature. Secondary antibodies typically contain a fluorescent tag for visualisation purposes. Membranes are washed once again 2× in PBS-T (0.05%) for 5 mins each time followed by a final wash in 1×PBS for 5 mins. The membranes are imaged using an Odyssey® Fc Licor imaging system.
The antibodies used in this experiment were: primary antibody: anti-Rep antibody 303.9 clone (Progen, 61069) and Secondary antibody: LICOR anti-mouse 800 nm (LICOR, 926-32210).
We also tested the ability of the AAV helper functions to induce the activity of the best performing promoter FORN-pJB42. Transfections were carried out as previously described. Conditions are as follows, FORN-pJB42 controlling expression of Rep78 was transfected with and without the adenovirus helper functions. […]

Take `C=C[C@@]1(C)CC(=O)[C@]2(O)[C@@]3(C)[C@@H](O)CCC(C)(C)[C@@H]3[C@H](O)[C@H](OC(C)=O)[C@@]2(C)O1` [Forskolin]: the “Concentration determined to be optimum to induce expression” value in the data set on HEK-293 cells was “about 18 μM”.

B1: FORN-pJB42: synthetic forskolin-inducible promoter, SEQ ID NO: 73; 7×cAMPRE and 6×AP1(3) with pJB42 minimal promoter (nucleic acid)
DNA: AATAAAATATCTTTATTTTCATTACATCTGTGTGTTGGTTTTTTGTGTGCCATTGACGTCACGATTTGACGTCAACCATTGACGTCACGATTTGACGTCAACCATTGACGTCACGATTTGACGTCACGATTTGACGTCAACCATTGACTCACGATTTGACTCAACCATTGACTCACGATTTGACTCAACCATTGACTCACGATTTGACTCACGATTCTGACAAATTCAGTATAAAAGCTTGGGGCTGGGGCCGAGCACTGGGGACTTTGAGGGTGGCCAGGCCAGCGTAGGAGGCCAGCGTAGGATCCTGCTGGGAGCGGGGAACTGAGGGAAGCGACGCCGAGAAAGCAGGCGTACCACGGAGGGAGAGAAAAGCTCCGGAAGCCCAGCAGCGGCCACC
modifications: Synp-FORNpJB42
notes: 7×cAMPRE and 6×AP1(3) with pJB42 minimal promoter
In the case of B1, in the data set on Pro10 cells, the “Rep78 expression in the presence of forskolin” value is on record as “strong expression” and the “Rep78 expression in the absence of forskolin” value is listed as “no Rep78 expression”. Also, the “Promoter activity (Rep78) in the presence of helper functions, absence of forskolin” value in the data set on Pro10 cells (adenovirus helper functions (pHelper), DMSO) is listed as “activated”. In the data set with Pro10 cells (adenovirus helper functions and 10 μM forskolin), the “Promoter activity (Rep78) in the presence of helper functions and forskolin” value is given as “full activity”.

B2: Synp-FORNEW: synthetic forskolin-inducible promoter, SEQ ID NO: 62; 7×cAMPRE and 6×AP1(3) with YB-TATA minimal promoter (nucleic acid)
DNA: AATAAAATATCTTTATTTTCATTACATCTGTGTGTTGGTTTTTTGTGTGCCATTGACGTCACGATTTGACGTCAACCATTGACGTCACGATTTGACGTCAACCATTGACGTCACGATTTGACGTCACGATTTGACGTCAACCATTGACTCACGATTTGACTCAACCATTGACTCACGATTTGACTCAACCATTGACTCACGATTTGACTCACGATTGCGATTAATCCATATGCTCTAGAGGGTATATAATGGGGGCCACTAGTCTACTACCAGAAAGCTTGGTACCGAGCTCGGATCCAGCCACC
modifications: Synp-FORNEW
notes: 7×cAMPRE and 6×AP1(3) with YB-TATA minimal promoter
On to B2, for which, in the data set with Pro10 cells, the “Rep78 expression in the presence of forskolin” value is recorded as “strong expression” and the “Rep78 expression in the absence of forskolin” value is “no Rep78 expression”.

B3: Synp-FORNTATAm6a: synthetic forskolin-inducible promoter, SEQ ID NO: 74; 7×cAMPRE and 6×AP1(3) with TATA-m6A minimal promoter (nucleic acid)
DNA: AATAAAATATCTTTATTTTCATTACATCTGTGTGTTGGTTTTTTGTGTGCCATTGACGTCACGATTTGACGTCAACCATTGACGTCACGATTTGACGTCAACCATTGACGTCACGATTTGACGTCACGATTTGACGTCAACCATTGACTCACGATTTGACTCAACCATTGACTCACGATTTGACTCAACCATTGACTCACGATTTGACTCACGATTTATAAAAGGCAGAGCTCGTTTAGTGAACCGAAGCTTGGACTAAAGCGGACTTGTCTCGAG
modifications: Synp-FORNTATAm6a
notes: 7×cAMPRE and 6×AP1(3) with TATA-m6A minimal promoter
For the molecule B3, in the data set with Pro10 cells, the “Rep78 expression in the presence of forskolin” value is listed as “strong expression” and the “Rep78 expression in the absence of forskolin” value is recorded as “no Rep78 expression”.
